Data as given in publication PMC10681739, “High-throughput data and modeling reveal insights into the mechanisms of cooperative DNA-binding by transcription factor proteins”.

B1: Table S2 A row 1482 (dsDNA)
DNA 1: CCATCCAGGAAGCTTATGGTGCAACCGCAGTGTGCC
DNA 2: GGCACACTGCGGTTGCACCATAAGCTTCCTGGATGG
B2: Table S2 A row 979 (dsDNA)
DNA 1: GCGCGGCCCGGAAGGGGGTAACCGCTGAGTCTTTGA
DNA 2: TCAAAGACTCAGCGGTTACCCCCTTCCGGGCCGCGC
B3: Table S2 A row 195 (dsDNA)
DNA 1: GCTCCCGGATGTTCTGGGGATCTGCGGCCGCCTGGC
DNA 2: GCCAGGCGGCCGCAGATCCCCAGAACATCCGGGAGC
B4: Table S2 A row 548 (dsDNA)
DNA 1: CTCTCACTTCCCGTGTGAGAAAAACCACAGAAAAGC
DNA 2: GCTTTTCTGTGGTTTTTCTCACACGGGAAGTGAGAG
B5: Table S2 A row 1754 (dsDNA)
DNA 1: AACAGTTGCATAGGAAGTGGTCAGCTCTCCTCCACC
DNA 2: GGTGGAGGAGAGCTGACCACTTCCTATGCAACTGTT
B6: Table S2 A row 240 (dsDNA)
DNA 1: CAGGCTCGCCACAGGGGAAGTGGTTAGGGCGGGTCC
DNA 2: GGACCCGCCCTAACCACTTCCCCTGTGGCGAGCCTG
B7: Table S2 A row 1175 (dsDNA)
DNA 1: TTGCTCCCGGAAGCCCCGCCCGACCGCGGCTCCTGA
DNA 2: TCAGGAGCCGCGGTCGGGCGGGGCTTCCGGGAGCAA
B8: Table S2 A row 224 (dsDNA)
DNA 1: GACCAATGTAAACAAGGATGTGGGTTCTCCGGGCAC
DNA 2: GTGCCCGGAGAACCCACATCCTTGTTTACATTGGTC
B9: Table S2 A row 843 (dsDNA)
DNA 1: CCTTGCTACAGGATGTTTTGACCACGAGCCCAGGAG
DNA 2: CTCCTGGGCTCGTGGTCAAAACATCCTGTAGCAAGG
B10: Table S2 A row 101 (dsDNA)
DNA 1: GAGGGACAGGATGCCGCCAGGAACCACAAGAGCTTC
DNA 2: GAAGCTCTTGTGGTTCCTGGCGGCATCCTGTCCCTC
B11: Table S2 A row 789 (dsDNA)
DNA 1: TCCCACTGCGACGGAAGCACAGCGGTTAAGATTGCA
DNA 2: TGCAATCTTAACCGCTGTGCTTCCGTCGCAGTGGGA
B12: Table S2 A row 1447 (dsDNA)
DNA 1: ACACCTCAGGAAGTGGCAGAGACCACAACAAGTCAG
DNA 2: CTGACTTGTTGTGGTCTCTGCCACTTCCTGAGGTGT
B13: Table S2 A row 692 (dsDNA)
DNA 1: TGCGAGGTTGCCAGGAAACCGCGAAGCCGAGGTCCC
DNA 2: GGGACCTCGGCTTCGCGGTTTCCTGGCAACCTCGCA
B14: Table S2 A row 276 (dsDNA)
DNA 1: CAGCTGACAGGAAGGAGAGAACCACAGACAGTGCGA
DNA 2: TCGCACTGTCTGTGGTTCTCTCCTTCCTGTCAGCTG
B15: Table S2 A row 1075 (dsDNA)
DNA 1: GTTGCAGGAAACGATGGGTTTTGTGGTATGAACTGC
DNA 2: GCAGTTCATACCACAAAACCCATCGTTTCCTGCAAC
B16: Table S2 A row 1256 (dsDNA)
DNA 1: AGCCGTCATTCAGGATGTGGTGACAGACATGGAGAC
DNA 2: GTCTCCATGTCTGTCACCACATCCTGAATGACGGCT
B17: Table S2 A row 37 (dsDNA)
DNA 1: AGAATCGCATCAGGATGTGGTGAGGGAGCACATTTG
DNA 2: CAAATGTGCTCCCTCACCACATCCTGATGCGATTCT
B18: Table S2 A row 315 (dsDNA)
DNA 1: GAAAAATGAAGTTTCCGCAGTAACCACAACACAGCC
DNA 2: GGCTGTGTTGTGGTTACTGCGGAAACTTCATTTTTC

Biological target: ETS1:RUNX1 (Homo sapiens, UniProt P14921;Q01196 full;full)
Assay: gcPBM; 1 nM ETS1 + 25 nM RUNX1, anti-ETS1 signal, normalised
Settings: tags: N-terminal GST (pDEST15), kept (PMC6008103); copies: 1;1; label: surface-attached array probe

Row | Binder | binding signal
1 | B1 | 2210 PBM fluorescence, median of replicate spots
2 | B2 | 1910 PBM fluorescence, median of replicate spots
3 | B3 | 2440 PBM fluorescence, median of replicate spots
4 | B4 | 2080 PBM fluorescence, median of replicate spots
5 | B5 | 2050 PBM fluorescence, median of replicate spots
6 | B6 | 2340 PBM fluorescence, median of replicate spots
7 | B7 | 1960 PBM fluorescence, median of replicate spots
8 | B8 | 2020 PBM fluorescence, median of replicate spots
9 | B9 | 2240 PBM fluorescence, median of replicate spots
10 | B10 | 2530 PBM fluorescence, median of replicate spots
11 | B11 | 2460 PBM fluorescence, median of replicate spots
12 | B12 | 2380 PBM fluorescence, median of replicate spots
13 | B13 | 2180 PBM fluorescence, median of replicate spots
14 | B14 | 2270 PBM fluorescence, median of replicate spots
15 | B15 | 2140 PBM fluorescence, median of replicate spots
16 | B16 | 2490 PBM fluorescence, median of replicate spots
17 | B17 | 2110 PBM fluorescence, median of replicate spots
18 | B18 | 1900 PBM fluorescence, median of replicate spots
